The values below come from article doi:10.1101/2025.10.03.680225.

The target of data set [1] is GAPDH-wt (UniProt P04406 1-335). The data set can be described thus: fluorescence anisotropy. On the technique in general: Polarisation of emitted light reports the rotation of a fluorescent probe.
Data set [2] deals with GAPDH-K215E (UniProt P04406 1-335, K215E). The data set can be described thus: fluorescence anisotropy.
Sequence of GAPDH-K215E (P04406 whole entry K215E): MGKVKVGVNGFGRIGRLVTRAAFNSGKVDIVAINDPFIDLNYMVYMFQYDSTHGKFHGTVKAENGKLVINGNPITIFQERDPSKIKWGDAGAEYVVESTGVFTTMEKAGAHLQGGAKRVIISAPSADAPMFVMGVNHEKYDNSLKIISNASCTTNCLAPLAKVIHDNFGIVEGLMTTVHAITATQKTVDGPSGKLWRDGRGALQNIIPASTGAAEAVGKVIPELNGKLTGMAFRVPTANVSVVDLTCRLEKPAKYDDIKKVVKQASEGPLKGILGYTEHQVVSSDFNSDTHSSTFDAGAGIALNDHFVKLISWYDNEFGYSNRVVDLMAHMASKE

Sequence of GAPDH-wt (P04406 whole entry): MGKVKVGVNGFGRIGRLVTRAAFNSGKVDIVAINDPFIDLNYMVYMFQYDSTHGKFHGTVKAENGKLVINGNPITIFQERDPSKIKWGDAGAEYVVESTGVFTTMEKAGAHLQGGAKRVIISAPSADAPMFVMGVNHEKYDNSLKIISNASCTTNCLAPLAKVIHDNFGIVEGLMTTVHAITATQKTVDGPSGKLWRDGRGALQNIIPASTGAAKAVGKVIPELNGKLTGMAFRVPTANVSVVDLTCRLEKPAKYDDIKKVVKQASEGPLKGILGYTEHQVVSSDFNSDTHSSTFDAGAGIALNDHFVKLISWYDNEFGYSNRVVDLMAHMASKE

B1: 20A-RNA (ssRNA)
RNA: AAAAAAAAAAAAAAAAAAAA
For the molecule B1, the Kd (usually the free concentration of one partner at which half of the binding sites on the other are occupied at equilibrium, for simple one-to-one binding) in data set [1] came out at 132 ± 10 nM; in data set [2] it was 3100 ± 217 nM.
